In the supplement of paper PMC10724198:
± gives the standard deviation of the averaged measurements.

System: Saccharomyces cerevisiae
Experiment: protein stability index of tFT-peptide fusion (C-terminal peptide) (PSI (0-1 scale)); higher = more stable (slower turnover)
Conditions: genetic background: wild type; temperature: 30 C
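Further: PSI is a weighted mean of sequencing reads over stability bins, variants kept only with over 10 reads, mCherry proximal and sfGFP distal, peptide attached via GGGS linker.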

Sequence	protein stability index
YWEVYAGLSLWV	0.63 ± 0.0048
GGWGTGTSGQGR	0.715 ± 0.027
TLSPAPSPTPPP	0.678 ± 0.048
SPTGTPIIPSYP	0.684 ± 0.0098
LSPVRRAPCPLG	0.6905 ± 0.0019
PLPPPSPSTPPP	0.796 ± 0.065
WCLDCVGFSLPE	0.687 ± 0.054
KTKTKKKERNRK	0.622 ± 0.088
KIYKKSKKKKEI	0.688 ± 0.061
KVQGGGKYPTYS	0.699 ± 0.058
SSPIFPDPSHVS	0.6058 ± 0.0054
PLPSPRLRFLVP	0.653 ± 0.036
RRPTVLRHQSPI	0.737 ± 0.031
GGGWDAVGVGGP	0.7505 ± 0.0022
VYTFGASKSMLG	0.629 ± 0.035
GMSFALSVYFFP	0.601 ± 0.01
PAPPPPPTDTPP	0.623 ± 0.0095
AGLACWGGVGER	0.693 ± 0.0079
PVPSRAQTRSRA	0.65 ± 0.073
KYDSPFFNWCSQ	0.579 ± 0.031
PRIPPPIPPDTP	0.695 ± 0.045
TRIGNGHPLGCG	0.718 ± 0.024
SIYNKNKKIKQK	0.688 ± 0.07
KNKIRLLNKTSK	0.6717 ± 0.0014
VVIRVKDEPFIM	0.6781 ± 0.0067

Sequence	protein stability index
EKLRGRKKGELQ	0.668 ± 0.036
GICLLRLDTFNI	0.667 ± 0.1
VVCLGLPIQAGV	0.526 ± 0.017
RMGWSGKVGVVG	0.78 ± 0.11
FVPMDFILKFSR	0.699 ± 0.033
ALEAAWGGLGGS	0.695 ± 0.013
LRPRRCWNQWDM	0.675 ± 0.048
LCPRIAIVHPPS	0.606 ± 0.027
GYNCKWGRTNVT	0.6782 ± 0.0024
YTWVDKNDRTKR	0.736 ± 0.11
KIINKKKKRKKN	0.665 ± 0.023
FVKRFSNGGVKT	0.775 ± 0.027
YGKELRRCKWVF	0.581 ± 0.0072
WDVVECCLWRYR	0.681 ± 0.034
VGACLEVWDGVR	0.686 ± 0.024
LPNTWLTSLIHQ	0.701 ± 0.33
YTTFNLSQTLNG	0.674 ± 0.023
PPLAPPTPHPLS	0.716 ± 0.029
NVRKWSREDQTG	0.6679 ± 0.00079
SHLSRSYPGLQL	0.742 ± 0.027
LGGRGGACRRDR	0.7 ± 0.019
VCAFGFPAASRV	0.6627 ± 0.0046
ASPLFFHPSAPH	0.6891 ± 0.0046
PRSPLSIFPSSL	0.692 ± 0.13
PLSPPPPPPPPL	0.707 ± 0.018

Sequence	protein stability index
GSLLSNVPPRIR	0.706 ± 0.013
WGAGGGVWWGGV	0.704 ± 0.03
LPPPPRPPLPSP	0.737 ± 0.068
MVTGELVQLLLV	0.528 ± 0.0048
RLPQIHSDREQK	0.746 ± 0.018
VFFCHFRFTPPS	0.692 ± 0.059
FTVRSPSCISAE	0.631 ± 0.017
GKRLRFNRRTRA	0.662 ± 0.11
PVIGLSMEKARG	0.739 ± 0.1
TASLQGCANGQS	0.674 ± 0.012
PSQPLPPSRHRP	0.616 ± 0.037
RLHHQYSEATIS	0.703 ± 0.027
SPPPGHPPLVPN	0.767 ± 0.013
SPTDSDINIPRV	0.714 ± 0.05
FHPRPPLLPSLP	0.6435 ± 0.003
FSLSRWFDEIAL	0.6438 ± 0.00075
DKDWDHGSLCIP	0.692 ± 0.074
HRGIPMRDLAPN	0.675 ± 0.02
HSPVPPLPALPL	0.73 ± 0.024
LLPPPPVPTPDR	0.659 ± 0.12
EVFGNVREAHCV	0.707 ± 0.019
ASQSFSFITFTY	0.645 ± 0.056
ETRKINELRAKK	0.642 ± 0.087
KKKPKKQRKNKR	0.684 ± 0.013
PFSLSLPPPPLP	0.73 ± 0.026

Sequence	protein stability index
NYLPLCCSMLAG	0.588 ± 0.015
PPPTPAPLLVPS	0.598 ± 0.0091
PIPRAASPLLPM	0.588 ± 0.007
PPSPPSPPPPLP	0.69 ± 0.012
TKNNYKKKKTKT	0.682 ± 0.029
HMGTNSSTGDRN	0.636 ± 0.032
GNVAMRKNIIGL	0.674 ± 0.057
PHSSSLSPCPSL	0.687 ± 0.013
APLPPPPDPPLP	0.695 ± 0.025
KKKKNKQKQIET	0.759 ± 0.07
PPDAPPMPPPQH	0.738 ± 0.083
IKSKFILKTRPM	0.691 ± 0.091
SLSWIGLYCCGL	0.717 ± 0.051
SRLNRRKGNGRK	0.656 ± 0.083
DVLSPRPSPLPS	0.665 ± 0.0093
LIRPSAPSHRSP	0.798 ± 0.025
PPRVSLLSPPPP	0.693 ± 0.034
PPPSPTPGHPQL	0.718 ± 0.044
AGSRPCPGWPPG	0.691 ± 0.011
SFCYFSCPSLIM	0.718 ± 0.11
GRSAGGTGAPSR	0.699 ± 0.022
KKKKKVKITGKK	0.766 ± 0.018
WYCRWWGVRGGH	0.672 ± 0.1
GSLIVAARGVAG	0.681 ± 0.024
VEVCLLRRWFGL	0.667 ± 0.055

Sequence	protein stability index
DLSDGHFSTASP	0.678 ± 0.0069
FVQEQGAKNNRH	0.746 ± 0.015
GGGAGGGSDRVV	0.736 ± 0.0096
ACVSGSGLCLFV	0.694 ± 0.04
PLLRLVPVPSVI	0.5537 ± 0.0025
LRTVSPPSASPP	0.689 ± 0.014
GWLAERGPLEGG	0.728 ± 0.016
CPLLSCAAFLSS	0.719 ± 0.025
SAVPFLRASRNA	0.693 ± 0.034
VECVPFAPPRPH	0.68 ± 0.14
GPCPCAPRSPSY	0.6705 ± 0.0033
TFENLFRLPWFK	0.699 ± 0.052
SYKAFVFSSDVW	0.77 ± 0.045
RSYLLVWTSRLH	0.637 ± 0.02
GQMSKMRDRLIA	0.652 ± 0.0094
ICCGLCRDCSCL	0.732 ± 0.069
SLSLVSLSPSFS	0.694 ± 0.0096
LGGLLLCLGLSG	0.674 ± 0.058
IFRTRISSSLWC	0.685 ± 0.0083
GVSPSPPSPPPH	0.741 ± 0.062
SGLRAFVVTLID	0.673 ± 0.011
SLRGIVFQSPSP	0.737 ± 0.025
PTPPPGLCTPRH	0.702 ± 0.04
GCRLFGLMFFDA	0.682 ± 0.063
ISPPAPTNLPTT	0.696 ± 0.043

Sequence	protein stability index
WGRNRGASDPNL	0.7198 ± 0.0046
EKSQMPPAPAPK	0.703 ± 0.04
YYLPRPPRPTVL	0.623 ± 0.11
SRDSRSSRRAGA	0.702 ± 0.065
WPGRAVCLGAGW	0.734 ± 0.056
SPGSPLSPPAPP	0.62 ± 0.04
PFPPLPLPLPLP	0.7123 ± 0.00013
CRKIKFIQKINK	0.623 ± 0.046
SQHTNTKTKLKK	0.706 ± 0.043
PPPLSFPSVYLT	0.75 ± 0.12
GKRLKKTRTKKS	0.704 ± 0.059
TMHFVWVLGILE	0.524 ± 0.014
SMSPAGARCLPR	0.782 ± 0.05
NGSPFFFNRLFT	0.702 ± 0.033
LCSPCSSLFHSQ	0.656 ± 0.032
LCVWFGGLGLVG	0.69 ± 0.019
KSKDKGEGKELK	0.694 ± 0.088
RVLWVELGSWGG	0.708 ± 0.045
LFLWRFPSPFRA	0.661 ± 0.036
RLSPGSPSPFPC	0.691 ± 0.029
ESKCADNKMKRK	0.652 ± 0.022
